# Data: article PMC9428257
# T1: human APRIL (a proliferation-inducing ligand) (human), O75888
# T1 chain: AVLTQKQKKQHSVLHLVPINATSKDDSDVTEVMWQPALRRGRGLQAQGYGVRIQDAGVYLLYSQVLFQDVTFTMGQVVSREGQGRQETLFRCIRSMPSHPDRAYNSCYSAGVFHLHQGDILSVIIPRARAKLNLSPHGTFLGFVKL
# B1: yeast-displayed wild-type sBCMA (human BCMA extracellular domain, Met1-Ala54), Q02223 1-54 (protein)
# chain: MLQMAGQCSQNEYFDSLLHACIPCQLRCSSNTPPLTCQRYCNASVTNSVKGTNA
# Target: T1, human APRIL (a proliferation-inducing …)
# Experiment: FACS
# Conditions: domain or fragment; chains chain; remark: other sources report otherwise
binder,measurement,value
B1,Kd,0.025 nM
